Results from the DeepSol protein solubility set.

test: soluble on expression in E. coli; label from the status in PepcDB or PDB records

Sequence | soluble on expression in E. coli
MTEDERFAWLQLAFTPYIGAESFLLLMRRFGSAQNALSAPAEQVAALIRHKQALEAWRNAEKRALARQAAEAALEWEMRDGCRLMLLQDEDFPEMLTQGLTAPPVLFLRGNVQLLHKPSAAIVGSRHATPQAMRIAKDFGKSLGGKGIPVVSGMASGIDTAAHQGALQAEGGTIAVWGTGIDRIYPPVNKNLAYEIAEKGLIVSEFPIGTRPYAGNFPRRNRLIAALSQVTLVVEAALESGSLITARLAAEMGREVMAVPGSIDNPHSKGCHKLIKDGAKLVECLDDILNECPGLLQNTGASSYSINKGIPEKRITAVQTASDQLSLPEGKMPSEKTENRPVGGSILDRMGFDPVHPDVLAGQLAMPAADLYAALLELELDGSVAAMPGGRYQRIRT | not soluble
MGSDKIHHHHHHMRRKIPSSTTLMAFEVAARHGSFARAAEELSLTEGAISRQIGRLEAFLGVTLFERVGNRVRLLPNGERYAAQVRESLDRLDRDSQYLMGQPSDGASLDIATIPTFAMRWLIPRLSRFQQKHPNITVHLAERMDPFVLAGSGFDAAIHFEHPAWTGMRTHQLLHEVLVPVCHPELLTGRKRKTALDELPRLHRRQNPEAWLQYSQETGTPLTNPAIGARYDLHGMLIEAALAGLGVALVPRLYVETELALGNLVAPWPEGKTISKTFCLILPEPIGLSREPIQAFAQWLLDEAKKGNSG | not soluble
MSLEVTTPGKLFIAGEYAVVEPGHPAIIVAVDQFVTVTVEETTDEGSIQSAQYSSLPIRWTRRNGELVLDIRENPFHYVLAAIHLTEKYAQEQNKELSFYHLKVTSELDSSNGRKYGLGSSGAVTVGTVKALNIFYDLGLENEEIFKLSALAHLAVQGNGSCGDIAASCYGGWIAFSTFDHDWVNQKVATETLTDLLAMDWPELMIFPLKVPKQLRLLIGWTGSPASTSDLVDRVHQSKEEKQAAYEQFLMKSRLCVETMINGFNTGKISVIQKQITKNRQLLAELSSLTGVVIETEALKNLCDLAESYTGAAKSSGAGGGDCGIVIFRQKSGILPLMTAWEKDGITPLPLHVYTYGQKECKEKHEGHHHHHH | soluble
MGSDKIHHHHHHMSKNIKTPTNQKVLTNVAVVRMKKTGKRFEIACYKNKVVNWRNKSEKDIDEVLQTHTVFSNVSKGQLSKKEELIAAFGIEDQLEIYSRQRRLASVGKRASGGFRSIAERGSFFLLKNVSQLIASMVVNPETKRPVPPSVIDKALQEMHFSLKPNRSSKQQALDAIPKLRETLKIERAKMKIRVAIPTKEAKSVHTKLKTLFSDVEVDDWQDGSLEMVGLIEPGSFRALDDLVRNETKGHGRLEILSLKDVVEGELQIS | not soluble
MSLKPWLITPERLTSEQIGLLDHFFDRGLERLHLRLPSAGEEDYSQVIEAVAACYRRRIVVHDHPRLVGRYGLCGLHLPERVWKGMTDRPQLPDGCTVSASCHAIEDIESFPFRLDYCFLSPVFDSLCKVGYAGRFSPDSLGDRLQRLHLPVVALGGITPDRLPQLRRAGFASAAALGYVWLVEGRELMRWQELCTPAVICVGGVDPSAGAGITADVRTAENMGVRAYTVATAITFQGSGSYRGERWVDSADIIRQIESLSAEMEPAVAKIGLIRDSDTLSLVVDCLKKVFPSIRIVWDPVLRASADSSAGQADRFNLEDITALSRIDFITPNLPEARHLLGCEPDDETLLDFYRRSGVGLVLKGGHAGESVVTDRIVYDGRCEALRLLRGGTGKHGTGCAHSTAFAAALALEQEPFTAAGMAQLYVSRLRERASGLLAMHKDLPVDPVVRLMSEIDLQFITHRQPDLSELEEAEAVCRIGVRWVQLRMKEASDEEMLHTACAVKAVCRHHGALFVVNDRVEIARQVDADGVHLGKEDMAIVEARRILGSNKIIGRTCNTMEDVRRAYAEGADYVGIGPYRYTETKQRLAPVLGLEGYKAIAACMQAEGIRLPAFAIGGIEDADIPLIRDCGIGGIAVSGSLIRKIKKEGHHHHHH | soluble
MSFTDNWSDEEFIRQMKELIGNEGDMHVTCNHSEGEQVTETHVTREKALWYRHNGDREGMLVCLNLSRVEVLNQRYFLGPCPF | not soluble
MGMTIVEKILAKASGKKEVSPGDIVMANIDVAMVHDITGPLTVNTLKEYGIEKVWNPEKIVILFDHQVPADSIKAAENHILMRKFVKEQGIKYFYDIREGVCHQVLPEKGHVAPGEVVVGADSHTCTHGAFGAFATGIGSTDMAHVFATGKLWFKVPET | not soluble
MIQLEKLTKHFGTKRVVHDASAQFDKGQVTAIIGPNGAGKSTLLSMASRLVNRDAGKVWIEQRELVEWNTKALAQKLAVLRQSNVLNMRFTVRELTAFGRFPYSQGKLTTQDEQIINQAIEYLDLETIQYQYLDELSGGQRQLAFIAMVMAQDTDYVFLDEPLNNLDIKHSLQIMSTLRRLAHELNKAVVVVIHDINFASCYADKIVALKKGEVVATGSVRDVIQSEVLSAIYDTPFNVIEMQGQRLCLYTLPT | not soluble
MRGSPRTKDRLAALKAAVSDEEDVEEVAVQVDSGGGFMEEFFEQVEEIRAMIDKISDNVDAVKKKHSDILSAPQTDDQMKEELEELMTDIKRTANKVRGKLKTIELNIEQEEHSNKSSADLRIRKTQYSTISRKFVEVMSDYNTTQIDYRDRCKARIKRQMEITGRTTTNEELEDMLESG | soluble
MSKNLLIELGLEELPAYVVTPSEKQLGERLATFLTENRLSFEDIQTFSTPRRLAVRVSGLADQQTDLTEDFKGPAKKIALDADGNFSKAAQGFVRGKGLTTDAIEFREVKGEEYVYVTKHEAGKPAKEVLLGVTEVLSAMTFPVSMHWANNSFEYIRPVHTLTVLLNDEALELDFLDIHSGRVSRGHRFLGTETTITSADSYEADLRSQFVIADAKERQEMIVEQIKTLEVEQGVQVDIDEDLLNEVLNLVEFPTAFMGSFEAKYLDVPEEVLVTSMKNHQRYFVVRDQAGHLMPNFVSVRNGNDQAIENVIKGNEKVLVARLEDGEFFWREDQKLQIADLVAKLTNVTFHEKIGSLAEHMDRTRVIAASLAKEANLSAEEVTAVDRAAQIYKFDLLTGMVGEFDELQGIMGEKYALLAGEDAAVATAIREHYLPDAAGGALPETKVGAVLALAAKLDTLLSFFSVGLIPSGSNDPYALRRATQGIVRILDHFGWRIPMDKLVDSLYDLSFDSLTYANKADVMNFIRARVDKMMGKAAPKDIREAILASSTFV | not soluble
MPMFNTLTSLFKQLLEGQDLAQHSATPELAIACLLSEVAGADQQISAPEQQAKLALLQHLLQCTAEQASDLLMRAEQEVKQSASLYDFTSQLRSLSQTQRFELIKAMWEVANADGTIDPLEDAVIRKAAELLYVDHSQFIRAKLMAADKHQSPE | not soluble
MLTETEGRAAVKLARKTIEIFLSKGKSPRPDASGVELSPVFEEYRGVFVTLTEGGLLRGCIGHPYPDSTLKEAILDSAISAATRDPRFPTVEQDEMKNILVEVTILTQPEKINASPKELPDKVEIGKHGLIVKQGYCQGLLLPQVAPENDMDSIDFLSHTCMKAGLSPDAWVKGAEVYCFEGQIFKEKEPDGEVIEEKFLEHHHHHH | soluble
MGSDKIHHHHHHMLSHETIWNAIDRLAEQYHLTPSGLARKAGLDPTSFNKSKRVGPDGRMRWPSTESIAKVLEATGARIDQFVTLISNDNHQVNAVHETLPDGNFPPQIGTIPLLGLAQAGSGGFFDDGGFPAGQGWDLVDLPTSAKPGVYALEIQGDSMKPLYRDGDILIVEPGAPVRRGDRVVVKTCDGEVMAKVLGRQTARTVDLISINPDHPNRVLDMQDVEWIARIIWVSQ | not soluble
MNFSGKYQVQSQENFEPFMKAMGLPEDLIQKGKDIKGVSEIVHEGKKVKLTITYGSKVIHNEFTLGEECELETMTGEKVKAVVKMEGDNKMVTTFKGIKSVTEFNGDTITNTMTLGDIVYKRVSKRI | soluble
MGSDKIHHHHHHMSKTRYYLEQCIPEMDDLVEKGLFTKNEVSLIMKKRTDFEHRLNSRGSSINDYIKYINYESNVNKLRAKRCKRILQVKKTNSLSDWSIQQRIGFIYQRGTNKFPQDLKFWAMYLNYMKARGNQTSYKKIHNIYNQLLKLHPTNVDIWISCAKYEYEVHANFKSCRNIFQNGLRFNPDVPKLWYEYVKFELNFITKLINRRKVMGLINEREQELDMQNEQKNNQAPDEEKSHLQVPSTGDSMKDKLNELPEADISVLGNAETNPALRGDIALTIFDVCMKTLGKHYINKHKGYYAISDSKMNIELNKETLNYLFSESLRYIKLFDEFLDLERDYLINHVLQFWKNDMYDLSLRKDLPELYLKTVMIDITLNIRYMPVEKLDIDQLQLSVKKYFAYISKLDSASVKSLKNEYRSYLQDNYLKKMNAEDDPRYKILDLIISKL | not soluble
MKQFVVISGKGGTGKTSVTAGLAAVGKDMVLADCDVDAADLHLVLAPEIRERHDFISGVVASIEPEACISCGLCTTHCRYGAIPQGYAPQVAPEHCEGCGVCAHVCPTGAARLSDRRCGEWYVSDTRFGPMVHAALGIGEENSGKLVSTVRTRARELAEARDASVVLIDGSPGVGCPVIASLAGADAALAVTEPTVSALHDLERVHALARHFDVRMAVLLNKADIHPGMAERIIGYCTTHDLPLVGRFGFSPLFVQAQLEGRTLPEQDSGEWRQRFNGVWNQLLALVLEHHHHHH | not soluble
MGSDKIHHHHHHVEGDCMGKGRFILMLHAHLPFINHPDFPSFMEERWLFEAITETYIPLLQGFRRLKRDGVNFKVTMSITPPLMEMFANKDLQKKYLNYLSSSIELAGNEISRTVSEHPAANRLATHYLRELEEIRAVYNECNGDLVGEFAQLQETGELEIVTCNATHGFLPLMTNFPEAINAQIEIGVDSYKKHTGREPRGIWLAECGYVPGFDSYLREHGLSFFFVDSHSLWYGDPAPRYGVYRPVVTPENVFAFARDPESSQQVWSAEVGYPGDARYREFYRDVGFDREEDYIRPYIDPSGERCNTGIKYYKITGKDVSLNEKGYYDIEDARRATVEHAKDFANRKREQIRRLSSQFDGEEPVIVAPFDAELFGHWWYEGPLFIEELFRELNGDITVVPSTPPEVIKSMEQAQVVTP | not soluble
MSIRLAQVTDIPVLKELLNQIFQVHQTVRPDLFKNTDKGSKYSETELKELLQDESKPIFVYTDGKNRVLGHLFLVIKETKGSSVSKPLKTLFIDDLCVSKEARGQKIGQELFEFALKYAKKLGCYDLTLNVWNDNKGALAFYERQGLKARETKMEKILLEHHHHHH | soluble
LGLWPVHRLSEEARRISPRQLSQRLQLSPLPAELRELVGAFNGALDRLEQAYVRLESFNADVAHELRTPLTNLIGQTQVALSRERSGEHYEEVLQSNLEELERLRAIVNDMLFLARADQGRLACEREETSLAGEIATTVDFLEVIFDEAGVGIEVRGEARALVERALFQRAVTNLLYNAAQHTAAGGTLRVGVERRGDEVRVAVSNPGVPIADEHRRHLFERFYRVDAARSNSEANHGLGLSIVKAVASMHGGSVFVDSADGWNTFGFTVLSPERRGPGDR | not soluble
MGSDKIHHHHHHMNFEIPQSLIHPLLALIQAESPLARQLREHGVCHGNMVVSARLFDAQSLSSLYTLSKAQNERELLFQMLALDNIYNAPQARTIPGLEMLVAGLIAYLSRDAIDGWLYQRSRDGVLLPWLVQRIRHVEPEQGMPYVAIDMLANTMLSANSEQTDPTRRRSGMTTSIIVTRDEIVDRTIPELLAEFGFFKECAEFRREYEIHAQRFVRYQRSFGAQFIATRAGFTVEGKNTVALARIADGVTARCINDEERLERRFEMNCDAEFWRRAGVVSGFEKVPLHGYVHLFHLEWHQNIWVHVQHLSEYKYRPELRDKLVLPDHHRDLIDILTSHMDVLVQDFVPGKSGGTTILCQGAPGLGKTLTAEIYAEVVGKPLYRVHSGQLGTTAASVGATLMEILRRAMRWNAVLLLDEADVYIRRRDNDLEHNAIVAEFLRTLEYFSGLLFMTTNRTGDVDDAILSRCIATIQYETPCREDAARLWRLQADQCGVSLQDELVDALTAAYPKASGRDIKELMKLATRYSEAKQIALSEDVFRLCAQFRAIE | not soluble
